Results reported in publication PMC3781208 (Chemistry & biology, 2013).
Positions of bridges follow the written chain, without caps; N, C: chain ends. Non-standard residues stand in square brackets, D forms with d. Residues, ends and D or L forms follow the SMILES beside them. *: point of attachment. FITC = O=C1OC2(c3ccc(O)cc3Oc3cc(O)ccc32)c2ccc(NC(=S)*)cc21; S5 = C=CCCC[C@](C)(N)C(=O)O; Nle = CCCC[C@H](N)C(=O)O; βAla = NCCC(=O)O

What was measured:
FITC-PUMA SAHBF1 = FITC-PUMA SAHBF1 (UniProt Q9BXH1); test: fluorescence polarisation
[1] = target: FITC-PUMA BH3 (aa 131–153) (UniProt Q9BXH1); test: fluorescence polarisation
BAXΔC = BAXΔC (Homo sapiens, UniProt Q07812); test: Fluorescence polarization binding assay, BAXΔC; details: ratio of FP KDs
Chain of BAXΔC (Q07812 whole entry, stated change not applied): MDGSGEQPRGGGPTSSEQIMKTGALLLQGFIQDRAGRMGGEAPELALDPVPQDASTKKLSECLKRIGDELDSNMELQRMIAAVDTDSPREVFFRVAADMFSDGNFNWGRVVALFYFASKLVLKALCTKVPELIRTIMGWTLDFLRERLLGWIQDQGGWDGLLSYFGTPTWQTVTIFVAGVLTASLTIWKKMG

Chain of FITC-PUMA SAHBF1 (Q9BXH1 131-153): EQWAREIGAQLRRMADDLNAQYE

Row | Molecule | Kd (FITC-PUMA SAHBF1) | Kd [1] | preference for BAXΔC over BAX A112C/V177C (BAXΔC)
1 | BAXΔC (domain or fragment) | 70 nM | 306 nM | –
2 | CCCC[C@@H]1NC(=O)[C@@](C)(NC(=O)[C@H](CCCNC(=N)N)NC(=O)[C@H](CC(C)C)NC(=O)[C@H](CCC(N)=O)NC(=O)[C@H](C)NC(=O)CNC(=O)[C@@H](NC(=O)[C@H](CCC(=O)O)NC(=O)[C@H](CCCNC(=N)N)NC(=O)[C@H](C)NC(=O)[C@H](Cc2c[nH]c3ccccc23)NC(=O)[C@H](CCC(N)=O)NC(=O)[C@H](CCC(=O)O)NC(=O)CCNC(=S)Nc2ccc3c(c2)C(=O)OC32c3ccc(O)cc3Oc3cc(O)ccc32)[C@@H](C)CC)CCCC=CCCC[C@@](C)(C(=O)N[C@@H](CC(C)C)C(=O)N[C@@H](CC(N)=O)C(=O)N[C@@H](C)C(=O)N[C@@H](CCC(N)=O)C(=O)N[C@@H](Cc2ccc(O)cc2)C(=O)N[C@@H](CCC(=O)O)C(N)=O)NC(=O)[C@H](CC(=O)O)NC(=O)[C@H](C)NC1=O [FITC-PUMA SAHBA1] ({FITC-βAla}-EQWAREIGAQLR[S5][Nle]AD[S5]LNAQYE-NH2; staple 13-17; N-terminus and C-terminus assumed) | – | – | 3 fold
3 | BAX A112C/V177C (from UniProt Q07812 1-192) (natural protein) | 90 nM | – | –
